Results taken from patent publication US20230357367A1 (GENERATE BIOMEDICINES, published 2023).
Changes are numbered by the printed parent chain. Where two headings read alike, the source gives them in different places.

B1: AB-1 (antibody, V domains shown)
VH: EVQLVESGAEVKKPGESLKISCKGSGYTFTRYWIGWVRQMPGKGLEWMGIIYPGDSDVRYSPSFQGHVTISADKSISTAYLQWNSLKASDTAMYYCARLPQYCSKGVCYRWFDPWGQGTLVTVSS
VL: EIVLTQSPSSVSASVGDRVTITCRASQGISSWLAWYQQKPGKAPKLLIYAASSLQSGVPSRFSGSGSGTDFTLTISSLQPEDFATYYCQQGHSFPYTFGQGTNLEIK
B2: Reference Antibody (antibody, V domains shown)
VH: B1 VH with V58T, K105N, Y109Q
VL: B1 VL with H92N

How the values were obtained:
Test in all cases: cell-based or functional assay
[1] = molecular target: SARS-CoV-2 D614G Spike on pseudovirus (SARS-CoV-2, UniProt P0DTC2 14-1273)
[2] = molecular target: T1, SARS-CoV-2 Omicron BA.2 Spike on pseudovirus (SARS-CoV-2)
[3] = molecular target: T2, SARS-CoV-2 Omicron BA.1 Spike on virus particles (SARS-CoV-2)
[4] = molecular target: T3, SARS-CoV-2 Delta Spike on virus particles (SARS-CoV-2)
[5] = molecular target: T4, SARS-CoV-2 Omicron BA.2.12.1 Spike on pseudovirus (SARS-CoV-2)
[6] = molecular target: T5, SARS-CoV-2 Omicron BA.4/5 Spike on pseudovirus (SARS-CoV-2)
[7] = molecular target: T5, SARS-CoV-2 Omicron BA.4/5 Spike on …; remark: listed apart in the source
[8] = molecular target: SARS-CoV-2 Omicron BA.4/5+K444T Spike on pseudovirus (SARS-CoV-2)
[9] = molecular target: T2, SARS-CoV-2 Omicron BA.1 Spike on virus …; remark: listed apart in the source
[10] = molecular target: T3, SARS-CoV-2 Delta Spike on virus …; remark: listed apart in the source
[11] = molecular target: T1, SARS-CoV-2 Omicron BA.2 Spike on …; remark: listed apart in the source
[12] = molecular target: T3, SARS-CoV-2 Delta Spike on virus …; remark: listed apart in the source
[13] = molecular target: T5, SARS-CoV-2 Omicron BA.4/5 Spike on …; remark: listed apart in the source
[14] = molecular target: T1, SARS-CoV-2 Omicron BA.2 Spike on …; remark: listed apart in the source
[15] = molecular target: T2, SARS-CoV-2 Omicron BA.1 Spike on virus …; remark: listed apart in the source
[16] = molecular target: T3, SARS-CoV-2 Delta Spike on virus …; remark: listed apart in the source
[17] = molecular target: T4, SARS-CoV-2 Omicron BA.2.12.1 Spike on …; remark: listed apart in the source
[18] = molecular target: T5, SARS-CoV-2 Omicron BA.4/5 Spike on …; remark: listed apart in the source
[19] = molecular target: T4, SARS-CoV-2 Omicron BA.2.12.1 Spike on …; remark: listed apart in the source

| Binder | EC50, pseudovirus neutralization on TMPRSS2-Vero E6 cells [1] [µg/mL] | % neutralization at 4.5 µg/ml, pseudovirus [2] [%] | % neutralization at 4.5 µg/ml, pseudovirus [3] [%] | % neutralization at 4.5 µg/ml, pseudovirus [4] [%] | % neutralization at 4.5 µg/ml, pseudovirus [5] [%] | % neutralization at 4.5 µg/ml, pseudovirus [6] [%] | Neutralization - IC50, pseudovirus [7] [µg/mL] | Neutralization - IC50, pseudovirus [8] [µg/mL] | IC50, live virus neutralization [9] [µg/mL] | IC50, live virus neutralization [10] [µg/mL] | IC50, pseudovirus neutralization [11] [µg/mL] | IC50, pseudovirus neutralization [12] [µg/mL] | IC50, pseudovirus neutralization [13] [µg/mL] | IC50, pseudovirus neutralization [14] [µg/mL] | IC50, pseudovirus neutralization [15] [µg/mL] | IC50, pseudovirus neutralization [16] [µg/mL] | IC50, pseudovirus neutralization [17] [µg/mL] | IC50, pseudovirus neutralization [18] [µg/mL] | IC50, pseudovirus neutralization [19] [µg/mL] |
| --- | --- | --- | --- | --- | --- | --- | --- | --- | --- | --- | --- | --- | --- | --- | --- | --- | --- | --- | --- |
| B1 | 0.013 | 89.9 | 96.5 | 99.5 | 89.2 | 90.4 | 0.0101 | 0.0094 | 0.119 | 0.236 | 0.031 | 0.034 | 0.075 | 0.0219 | 0.0088 | 0.0139 | 0.0133 | 0.0278 | – |
| B2 | – | 74.5 | 91.9 | 93.9 | – | 74.4 | – | – | 0.528 | 7.45 | 1.25 | 0.256 | 0.634 | 0.0941 | 0.0261 | 0.0681 | 0.0307 | 0.0314 | 0.337 |
